This is an account of results in patent publication CN114685666A (ZHEJIANG NANOMETER ANTIBODY TECH CENTER LIMITED COMPANY, dated 2022).

For experiment [1], the target named is T1, 人MSLN.His抗原 (MSLN.His蛋白, 义翘神州科技股份有限公司, MSN-H5223) (human, UniProt Q13421 296-580, limits assumed).
T1 construct: Bought protein; not shown: His tag
As to the kind of experiment: SPR (Biacore), antibody captured on protein A chip, MSLN.His as analyte at 5 concentrations. On the technique in general: In SPR one partner is held on a chip, and binding of the other changes the refractive index at the surface.

Experiment [2] has as its target MSLN expressed on HEK293T cells (HEK293T MSLN细胞) (UniProt Q13421). As to the kind of experiment: flow cytometry on HEK293T cells expressing MSLN, anti-human IgG PE detection. For orientation: A flow cytometer gives signals particle by particle.

T1 sequence (Q13421 other isoform, or with tags, fused parts or gaps limits assumed): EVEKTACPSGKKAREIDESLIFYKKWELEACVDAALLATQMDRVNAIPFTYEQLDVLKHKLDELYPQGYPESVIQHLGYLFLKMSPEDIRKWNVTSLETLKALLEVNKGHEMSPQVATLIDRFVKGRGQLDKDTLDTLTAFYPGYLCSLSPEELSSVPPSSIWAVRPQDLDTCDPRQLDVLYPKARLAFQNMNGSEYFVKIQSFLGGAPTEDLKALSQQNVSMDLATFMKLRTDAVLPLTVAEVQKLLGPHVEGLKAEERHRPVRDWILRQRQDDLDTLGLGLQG

B1: M2339 (重链抗体, 纳米抗体构建到pCDNA3.4-IgG4载体上表达) (Fc fusion)
heavy: QLQLGASGGGLVQPGGSLRLSCALSGFTLRELDEFAIGWFRQAPGKEREGVSCISGTGGITHYADSVKGRFTISRDIAKTTVYLQMNSLNSEDTAVYYCAADERCTDRLIRPPTYWGQGTQVTVSS
notes: also called 候选抗体; not shown: IgG4 constant part from the vector pCDNA3.4-IgG4
The term Kd denotes the concentration at which binding is half-saturated. A higher Kd goes with weaker binding. What is called koff is the rate constant with which the complex falls apart. As a reminder, the kon is the rate constant with which the complex forms. Read a low kon as slow association. What is called EC50 is the concentration that produces a half-maximal response. The low end stands for an effect from little substance, the high end for a need for much substance. Take B1: in experiment [1], binding was put at a Kd of 0.264 nM, the koff is 1.82e-05 s⁻¹ and the on-rate (kon) was 69000 M⁻¹ s⁻¹. Moreover, in experiment [2], the 50% effective concentration (EC50) came out at 3.68 nM.
